The text below walks through data of paper PMC2917807 (Journal of molecular biology, 2010).

Experiment [1] addresses LexA-SoxS bait fusion protein (pGILDA-SoxS), wild type SoxS (Escherichia coli) (UniProt P0A9E2). In words: two-hybrid.
Experiment [2] concerns the target T1, LexA-SoxS bait fusion protein (pGILDA-SoxS), wild type SoxS (Escherichia coli, UniProt P0A9E2 1-107).
T1 sequence (looked up): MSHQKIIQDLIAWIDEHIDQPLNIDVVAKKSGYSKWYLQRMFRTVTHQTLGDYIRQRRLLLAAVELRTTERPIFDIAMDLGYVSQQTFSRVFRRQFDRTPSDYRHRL
In words: two-hybrid.

Turning to “B42AD-αCTD prey fusion protein (pB42AD-αCTD) (domain or fragment)”, the induction ratio of reporter β-galactosidase in experiment [1] is 25.

B1: B42AD-σ^70 R4 prey fusion protein (pB42AD-σ^70 R4), wild type region 4 of σ^70 (domain or fragment, Escherichia coli, UniProt P00579 530-613, looked up)
chain: LPLDSATTESLRAATHDVLAGLTAREAKVLRMRFGIDMNTDYTLEEVGKQFDVTRERIRQIEAKALRKLRHPSRSEVLRSFLDD
For the molecule B1, the “induction ratio of reporter β-galactosidase” value in experiment [2] stood at 14.
